According to publication PMC8168426 (ACS chemical biology, 2020):
Ends that are not written are not given here. * marks the point of attachment. NHCH2CH2(5-OH-indol-3-yl) = Oc1ccc2[nH]cc(CCN*)c2c1; fluorescein = fluorescein label (C-terminal); Me3 = trimethyl (trimethyl-lysine); Me2 = dimethyl (dimethyl-lysine)

T1: GST-PHD1 (S287–K347) of histone demethylase KDM5A (UniProt P29375 287-347)
T1 sequence (looked up): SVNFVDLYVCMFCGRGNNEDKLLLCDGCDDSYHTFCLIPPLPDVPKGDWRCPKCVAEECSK

T2: PHD1^287–347-KDAC8–6xHis fusion construct (UniProt P29375 287-347)
T2 sequence (looked up): T1 sequence (looked up)


system: PHD1 domain of KDM5A; test: not given; conditions: result in words; cited from earlier work

| Molecule | Binding to PHD1 as previously established |
| --- | --- |
| H3K9me3: well-characterized H3 12-mer ligand bearing K9me3 (ARTKQTARKSGC; trimethyl-lysine at 9 (H3K9me3)) [Ligand H3K9me3] | does not impact PHD1-H3 association |
| N-terminally acetylated H3: N-terminally acetylated H3 12-mer peptide (Ac-ARTKQTARKSGC) | not bind PHD1 |
| H3 R2A: well-characterized H3 12-mer ligand with R2A mutation (AATKQTARKSGC) | strongly reduces binding |

target: T1, GST-PHD1 (S287–K347) of histone …; test: fluorescence polarisation; conditions: not given

| Molecule | binding result |
| --- | --- |
| ARTKQTARKS-fluorescein (peptide, UniProt P68431 2-11, looked up) [H3 peptide (1–10) carrying a C-terminal fluorescein label] | binds |
| ARTKQTARKSGC (not fully specified (C-terminus)) [unmodified H3 12-mer ligand (first 10 N-terminal residues of H3 and a GC moiety)] | binds |
| ARTKQ(NHCH2CH2(5-OH-indol-3-yl))TARKSGC (not fully specified (C-terminus)) [Q5-serotonylated H3 12-mer ligand] | binds |

target: T2, PHD1^287–347-KDAC8–6xHis fusion …; test: PI-SAMDI; conditions: not given

| binding result | Molecule |
| --- | --- |
| binds | ARTK(Me2)QTARKSGC (not fully specified (C-terminus)) [H3K4me2 12-mer ligand] |
| binds | ARTK(Me3)QTARKSGC (not fully specified (C-terminus)) [H3K4me3 12-mer ligand] |
| binds | ARTKYTARKSGC [H3 Q5Y 12-mer ligand] |
| binds | ARTKETARKSGC [H3 Q5E 12-mer ligand] |

Continued, molecule first:

| Molecule | binding result |
| --- | --- |
| ARTKQTARKSGC (not fully specified (C-terminus)) [unmodified H3 12-mer ligand (first 10 N-terminal residues of H3 and a GC moiety)] | binds |
| ARTKQ(NHCH2CH2(5-OH-indol-3-yl))TARKSGC (not fully specified (C-terminus)) [Q5-serotonylated H3 12-mer ligand] | binds |
| ARTKQTARKSGC (not fully specified; trimethyl-lysine at 9 (H3K9me3)) [H3K9me3 12-mer ligand] | binds |
| ARTK(Me)QTARKSGC (not fully specified (C-terminus)) [H3K4me1 12-mer ligand] | binds |

target: T2, PHD1^287–347-KDAC8–6xHis fusion …; test: PI-SAMDI; conditions: not given; remark: another data set of the same source

| Molecule | binding result |
| --- | --- |
| ARTKRC [H3 Q5R 6-mer ligand (ARXKZC with X = T, Z = R)] | binds |
| ARTKSC [H3 Q5S 6-mer ligand (ARXKZC with X = T, Z = S)] | binds |
| ARYKQC [H3 T3Y 6-mer ligand (ARXKZC with X = Y, Z = Q)] | binds |
| ARVKRC [H3 T3V Q5R 6-mer ligand (ARXKZC with X = V, Z = R)] | binds |
| ARYKRC [H3 T3Y Q5R 6-mer ligand (ARXKZC with X = Y, Z = R)] | binds |
| ARVKWC [H3 T3V Q5W 6-mer ligand (ARXKZC with X = V, Z = W)] | binds |
| ARYKYC [H3 T3Y Q5Y 6-mer ligand (ARXKZC with X = Y, Z = Y)] | binds |

target: T1, GST-PHD1 (S287–K347) of histone …; test: fluorescence polarisation; conditions: not given; remark: another data set of the same source

| Molecule | Ki [µM] |
| --- | --- |
| ARTKATARKS (peptide, UniProt P68431 2-11, looked up) [H3 Q5A 10-mer peptide] | 0.75 |
| ARAKQTARKS (peptide, UniProt P68431 2-11, looked up) [H3 T3A 10-mer peptide] | > 100 |
| ARDKQTARKS (peptide, UniProt P68431 2-11, looked up) [H3 T3D 10-mer peptide] | > 100 |
| ARFKQTARKS (peptide, UniProt P68431 2-11, looked up) [H3 T3F 10-mer peptide] | > 100 |
| ARYKQTARKS (peptide, UniProt P68431 2-11, looked up) [H3 T3Y 10-mer peptide] | > 100 |
| ARYKYTARKS (peptide, UniProt P68431 2-11, looked up) [H3 T3Y Q5Y 10-mer peptide] | > 100 |
